{"source": "paper PMC3402478", "about": "“ADP Ribosylation by PARP-1 Suppresses HOXB7 Transcriptional Activity”", "binders": {"B1": {"name": "HBS EMSA probe (dsDNA)", "DNA 1": "AAATATCAATTAAATCTTAATTATAA", "DNA 2": "TTATAATTAAGATTTAATTGATATTT"}}, "key": {"[1]": {"molecular_target": "PARP-1 (purified, Trevigen) (UniProt P09874 1-1014)", "sequence (P09874 whole entry)": "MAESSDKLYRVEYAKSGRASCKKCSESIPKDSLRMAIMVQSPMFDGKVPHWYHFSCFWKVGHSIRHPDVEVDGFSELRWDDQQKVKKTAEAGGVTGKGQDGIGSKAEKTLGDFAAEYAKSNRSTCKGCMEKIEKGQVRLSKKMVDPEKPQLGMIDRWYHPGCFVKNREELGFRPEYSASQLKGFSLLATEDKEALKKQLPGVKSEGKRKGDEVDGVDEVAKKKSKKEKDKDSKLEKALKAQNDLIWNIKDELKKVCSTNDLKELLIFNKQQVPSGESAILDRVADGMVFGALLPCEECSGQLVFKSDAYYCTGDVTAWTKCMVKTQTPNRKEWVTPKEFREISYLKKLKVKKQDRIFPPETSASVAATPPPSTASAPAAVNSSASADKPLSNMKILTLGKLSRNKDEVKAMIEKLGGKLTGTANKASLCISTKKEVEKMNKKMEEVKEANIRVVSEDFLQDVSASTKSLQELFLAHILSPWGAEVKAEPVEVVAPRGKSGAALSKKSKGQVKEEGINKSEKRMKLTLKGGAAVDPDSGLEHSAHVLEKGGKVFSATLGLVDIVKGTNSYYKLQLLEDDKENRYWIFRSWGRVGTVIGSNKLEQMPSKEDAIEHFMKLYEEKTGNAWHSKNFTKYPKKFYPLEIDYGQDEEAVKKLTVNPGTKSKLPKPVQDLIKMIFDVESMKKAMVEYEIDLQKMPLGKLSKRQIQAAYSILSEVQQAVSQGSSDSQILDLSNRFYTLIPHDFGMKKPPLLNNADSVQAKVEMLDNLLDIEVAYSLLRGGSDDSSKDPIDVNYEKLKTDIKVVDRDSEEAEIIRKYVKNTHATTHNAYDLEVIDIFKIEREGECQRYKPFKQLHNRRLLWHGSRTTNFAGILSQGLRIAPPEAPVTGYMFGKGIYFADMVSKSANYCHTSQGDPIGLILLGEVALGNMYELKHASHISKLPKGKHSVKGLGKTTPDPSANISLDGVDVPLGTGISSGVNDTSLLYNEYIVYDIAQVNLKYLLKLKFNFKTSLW", "assay": "EMSA; EMSA: 50 mM Tris-HCl pH 7.5, 50 mM NaCl, 1 mM MgCl2, 0.5 mM DTT, 4% glycerol, 0.5 mM EDTA, 0.25 mg/ml poly(dI-dC), 20 min, gel at room temperature; ONP: 60 mM KCl, 12 mM HEPES pH 7.9, 4 mM Tris-HCl, 5% glycerol, 0.5 mM EDTA, 1 mM DTT, 4 C, 3 h", "settings": "protein: commercial; label: 32P; blunt"}, "GST-HOXB7": {"molecular_target": "GST-HOXB7 (UniProt P09629 1-217)", "sequence (P09629 whole entry)": "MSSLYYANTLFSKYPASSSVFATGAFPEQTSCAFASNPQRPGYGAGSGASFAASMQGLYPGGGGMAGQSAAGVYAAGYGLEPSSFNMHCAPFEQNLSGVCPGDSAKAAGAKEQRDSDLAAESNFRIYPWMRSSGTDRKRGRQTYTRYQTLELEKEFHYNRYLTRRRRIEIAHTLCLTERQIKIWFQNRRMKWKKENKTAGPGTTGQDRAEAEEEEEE", "assay": "EMSA; no PARP-1; competed by 100-fold unlabeled probe; EMSA: 50 mM Tris-HCl pH 7.5, 50 mM NaCl, 1 mM MgCl2, 0.5 mM DTT, 4% glycerol, 0.5 mM EDTA, 0.25 mg/ml poly(dI-dC), 20 min, gel at room temperature; ONP: 60 mM KCl, 12 mM HEPES pH 7.9, 4 mM Tris-HCl, 5% glycerol, 0.5 mM EDTA, 1 mM DTT, 4 C, 3 h", "settings": "protein: recombinant; tags: GST; label: 32P; blunt"}}}
{"binder": "B1", "values": [{"measurement": "binding result", "setting": "[1]", "result": "no binding"}, {"measurement": "binding result", "setting": "GST-HOXB7", "result": "binds"}]}
